Assay results from the Immune Epitope Database (IEDB).

How the values were obtained:
[1] = target: HLA-A*30:01; test: IEDB peptide-MHC binding, purified MHC/competitive/radioactivity; filed as Kd, often an IC50 or EC50 that approximates it; ≥ and ≤ were set here for values at or beyond the usual limits of such assays
[2] = target: HLA-A*26:01; test: as above
[3] = target: HLA-A*24:02; test: as above
[4] = target: HLA-A*24:02; test: IEDB peptide-MHC binding, purified MHC/competitive/fluorescence; ≥ and ≤ were set here for values at or beyond the usual limits of such assays
[5] = target: HLA-A*02:01; test: as above
[6] = target: HLA-A*01:01; test: IEDB peptide-MHC binding, purified MHC/competitive/radioactivity; filed as Kd, often an IC50 or EC50 that approximates it; ≥ and ≤ were set here for values at or beyond the usual limits of such assays
[7] = target: HLA-B*40:01; test: as above
[8] = target: HLA-B*53:01; test: as above; settings: source organism: Dengue virus 2 Jamaica/1409/1983
[9] = target: HLA-A*30:02; test: as above; settings: source organism: Dengue virus 4 Philippines/H241/1956
[10] = target: HLA-A*23:01; test: as above
[11] = target: HLA-A*03:01; test: as above; settings: source organism: Vaccinia virus WR
[12] = target: HLA-A*33:01; test: as above; settings: source organism: Vaccinia virus WR
[13] = target: HLA-A*68:01; test: as above; settings: source organism: Vaccinia virus WR
[14] = target: HLA-A*31:01; test: as above; settings: source organism: Vaccinia virus WR
[15] = target: HLA-A*11:01; test: as above; settings: source organism: Vaccinia virus WR
[16] = target: HLA-A*02:01; test: as above
[17] = target: HLA-A*03:01; test: IEDB peptide-MHC binding, purified MHC/direct/fluorescence; filed as Kd, often an IC50 or EC50 that approximates it; ≥ and ≤ were set here for values at or beyond the usual limits of such assays; settings: source organism: Haemophilus influenzae
[18] = target: HLA-B*15:01; test: as above; settings: source organism: Haemophilus influenzae
[19] = target: HLA-A*31:01; test: as above; settings: source organism: Haemophilus influenzae
[20] = target: HLA-B*44:03; test: IEDB peptide-MHC binding, purified MHC/competitive/radioactivity; filed as Kd, often an IC50 or EC50 that approximates it; ≥ and ≤ were set here for values at or beyond the usual limits of such assays; settings: source organism: Dengue virus 2 Jamaica/1409/1983
[21] = target: HLA-A*26:01; test: IEDB peptide-MHC binding, purified MHC/direct/fluorescence; filed as Kd, often an IC50 or EC50 that approximates it; ≥ and ≤ were set here for values at or beyond the usual limits of such assays; settings: source organism: Bacillus cereus AH1134
[22] = target: HLA-B*44:02; test: IEDB peptide-MHC binding, purified MHC/competitive/radioactivity; filed as Kd, often an IC50 or EC50 that approximates it; ≥ and ≤ were set here for values at or beyond the usual limits of such assays; settings: source organism: Dengue virus 1 Brazil/97-11/1997
[23] = target: HLA-A*02:06; test: as above; settings: source organism: Dengue virus 2 Jamaica/1409/1983
[24] = source organism: Dengue virus 2 Jamaica/1409/1983
[25] = source organism: Dengue virus 4 Philippines/H241/1956
[26] = source organism: Zaire ebolavirus
[27] = source organism: Sudan ebolavirus
[28] = source organism: Vaccinia virus WR
[29] = source organism: Dengue virus 3 Martinique/1243/1999
[30] = source organism: Dengue virus 1 Brazil/97-11/1997
[31] = source organism: Dengue virus 4 Thailand/0348/1991

## CTILAAVSVS
[1]; [24]
  Kd: 2830 nM
[2]; [24]
  Kd: ≥ 55900 nM

## LWPKTHTLW
[3]; [25]
  Kd: 44.9 nM

## AFKVRPTFA
[1]; [24]
  Kd: 52.1 nM

## QREIFSAWI
[4]; source organism: Variola virus
  IC50: ≥ 76300 nM

## KRDGVKRLE
[4]; [26]
  IC50: ≥ 173000 nM

## TVTGILGSL
[5]; [27]
  IC50: 22500 nM
[4]; [27]
  IC50: ≥ 76800 nM

## KAKTTISNY
[1]; [28]
  Kd: 24.3 nM

## YIGEVLVSV
[5]; source organism: Homo sapiens
  IC50: 10 nM

## DKFRKSSFF
[4]; [27]
  IC50: 52200 nM

## ISRSRRLFA
[1]; [28]
  Kd: 2.23 nM

## NTSANLSLA
[6]; [25]
  Kd: 1350 nM

## KIKSSNSSK
[1]; [28]
  Kd: 14.6 nM

## CLPAAPDGI
[5]; [26]
  IC50: 3840 nM
[4]; [26]
  IC50: 37400 nM

## REEEEAGVL
[7]; [24]
  Kd: 3.23 nM

## MVPLHIPEG
[5]; [27]
  IC50: 38200 nM

## SVGGVFTSV
[5]; source organism: West Nile virus NY-99
  IC50: 247 nM

## YLFNWAVRT
[5]; source organism: Hepatitis C virus genotype 1
  IC50: 5000 nM

## IVRDSMWYI
[1]; source organism: Vaccinia virus Copenhagen
  Kd: 19.7 nM

## EPIPMSTYGW
[2]; [24]
  Kd: ≥ 40500 nM
[8]
  Kd: 334 nM

## PSSVAARGY
[6]; [25]
  Kd: 200 nM
[9]
  Kd: 3230 nM

## AYTIGTTHF
[10]; [24]
  Kd: 126 nM
[3]; [24]
  Kd: 774 nM

## KFRPGSLIY
[1]; [28]
  Kd: 0.303 nM
[11]
  Kd: ≥ 21300 nM
[12]
  Kd: ≥ 77700 nM
[13]
  Kd: ≥ 77700 nM
[14]
  Kd: 11300 nM
[15]
  Kd: ≥ 58400 nM

## VLLGVKLSGV
[16]; source organism: Homo sapiens
  Kd: 4.7 nM

## YWPVMNHKN
[4]; [26]
  IC50: 7120 nM

## ILKEHVSRY
[17]
  Kd: 3180 nM
[18]
  Kd: 531 nM
[19]
  Kd: 5580 nM

## DRERLKVFL
[4]; source organism: Variola virus
  IC50: ≥ 169000 nM

## KETACLGKSY
[20]
  Kd: 23.6 nM

## NVWEVEDYGF
[10]; [29]
  Kd: 175 nM

## LSFTVVSNG
[5]; [26]
  IC50: ≥ 325000 nM

## CLEKVQRQI
[5]; [26]
  IC50: 21900 nM

## AFPQSNAVI
[3]; [30]
  Kd: 2900 nM

## REIVVPCRNQ
[7]; [30]
  Kd: 228 nM

## KRSLRPQPTE
[1]; [24]
  Kd: 3690 nM

## EKTKTDFGFY
[2]; [25]
  Kd: 9240 nM
[9]
  Kd: 20.1 nM

## PLEEELPR
[16]; source organism: Hepatitis B virus
  Kd: ≥ 25000 nM

## SGVLWDTPSP
[1]; [30]
  Kd: ≥ 70400 nM

## LCRTSCLQK
[1]; [25]
  Kd: 1350 nM

## TISGVLWQV
[16]; source organism: Hepatitis C virus subtype 2b
  Kd: 35 nM

## EVADRILFM
[21]
  Kd: 3 nM

## NLLTTPKFT
[16]; source organism: Human alphaherpesvirus 1 strain 17
  Kd: 500 nM

## EERDIPERSW
[22]
  Kd: 72.4 nM

## ILDKVLVHP
[16]; source organism: Homo sapiens
  Kd: 4080 nM

## SVKCQSPPS
[1]; [28]
  Kd: 16.8 nM

## PTAWQSVGH
[5]; [26]
  IC50: ≥ 264000 nM
[4]; [26]
  IC50: 28700 nM

## RTLRVLNLV
[1]; [24]
  Kd: 222 nM
[23]
  Kd: 10.2 nM

## REDLWCGSL
[7]; [25]
  Kd: 2.35 nM

## TVIEHLERL
[2]; [29]
  Kd: 81.1 nM

## ETWALRHPGF
[1]; [30]
  Kd: 1900 nM
[6]; [30]
  Kd: ≥ 41200 nM
[2]; [30]
  Kd: 666 nM

## VWIEDNPNMI
[10]; [31]
  Kd: 472 nM
[3]; [31]
  Kd: 546 nM

## STSNGLITS
[5]; [27]
  IC50: ≥ 177000 nM

## TTRDKLFNK
[1]; [28]
  Kd: 123 nM
